# Results reported in the DeepSol protein solubility set.
# Assay: soluble on expression in E. coli; label from the status in PepcDB or PDB records
row,Sequence,soluble on expression in E. coli
1,MPAGANSRTPATDFVQDYAAKRQAQMERARQLREDRLQQQQQQRQSSPKTSGGGNAYNSSPTYTAVPSASGGGTATAAPTSRQPPPPSLNVPRSRHVTPGHDSADSGSSPGKCGDGCVLYIKEQDFKQATQAGIITPDQARQLWAMLSNQIIRVCSPSAHANAVSVSSLLALSNNSYNSSGWAAGGPQSTGGSEFGASISLESLRTSIAYFKREQQRLQQQGGGGAAGAAHGSNAQGRHPLSSSPPALSNTVGQPLSQSRGLPQRQLQYDGNANSDYCRNDGAANDNEQRALGAPMPLRGSGGSGGGGRGGRPAWNSDVEVRHEDDYDDDRNRHAPSSMSTMNSGAAALKKPRTGRTNTVRPAAKGPAASSSPAAGASGVLGTSAQGRGYGSDNEEAGNNAYMPQQPSSAVPRGAKAGGSGAASRRPPASRPTAPPPSSGAPVNLDDVPVGGGGGGGGGMNDWANAYPPGMVPPTSTGGNDAIAAEAAAAAQEPMQECRTCGRRFRISVVMRHEALCRNQANKPRKVFNMREQRLDGVEGIKEVQRTAARSGGGGGGRGAGGGGGRGGGADAAAGAAKGKLPKWKVQHEQFQAAMRAVRQQKEAGGGFGSGRMAPPPAPIPEEYDDRVPCPHCGRKFAQDVAARHIPKCATTIAKPKGIRPIRR,not soluble
2,MGSDKIHHHHHHMCRWAAYIGPPVHLDEVVCKPEHSLVAQSVHAFECKTQTNADGFGIAWYDSREEPGLYRDTHPAWSDPNLKSITHQVRSGLFLAHVRASTGTATSRNNCHPFTHGCWSFMHNGQVGGFENFRRRADMIIPDELYSARKGATDSEALFLIAIAEGLYEDPKGAMQRAVGRLEALSREFGHTPHMRIGAAFSCGGALYAVRYASDHLAPTVYSSKSADGTGRLVVSEPLHKGECWEAVPAGSFCRFTADDTEIEDFVPQF,not soluble
3,KKHILVYNEEADEALRQIKADRIELHQSFKASFERLNEIQQLAYTNAMTRDAALIQEPDFDPEQLESDYYRNLYRINTRRDNLNTHRALEN,not soluble
4,MQPHPETTPVTSCTIIDATDRSIRQTLGETSTLARLIWVDAGLASPPLCSGLARCGRCRVRITEAAPAPHEDDREFFSAEDISAGWRLACRHAPAHGMVVHVPLPVMPHRHASRPKHPGPFRLAVDLGTTSLQWSLLAPDGTVAAQGSETNPQMGAGSDVMSRIAMARSDKGRGRLRELVLQALRRIVADVEGTPATADAVPPAGSGDEPTTACGYESRVEELCVAGNTAMTAILADESVEGLASAPYRLEMRGGTALALPGLPPAWIPPLPAPFVGGDLSAGYLAVLTDHAPAFPFVLADLGTNGEFVLALSPERTLVTSVALGPALEGIGLTFGTVAQRGAITSFTLTPGGLVPYVLDGGEADGISGTGYISLVHALLRAGLLDVDGRFIQSPSSPLAARMARSIVSHRGEPCLPLARGLYLAARDIEEILKVKAAFSLAFERLLATAQMPSHALSGIHLAGALGQHALPADLEGLGFIPPGSGGRTRAVGNTSLRGAELLLTSPPLRDTLNTWREGCTVVDLTAAPDFSAAFLRHMHFHFLEHHHHHH,soluble
5,MFQNSPMMYDWWNDTTKPKHQQPTLNVLSPWGAYFNHIGNELLHLKIASSTVSSGCSSPQQYSSARSVGNSLSNGSVVSTTSSDGDVQLSNKENSNDKSVGDKNGNTTTNKTTVEPPPPEEPPVRVRASHREKLSDSEVLNQLREIVNPSNPLGKYEMKKQIGVGASGTVFVANVAGSTDVVAVKRMAFKTQPKKEMLLTEIKVMKQYRHPNLVNYIESYLVDADDLWVVMDYLEGGNLTDVVVKTELDEGQIAAVLQECLKALHFLHRHSIVHRDIKSDNVLLGMNGEVKLTDMGFCAQIQPGSKRDTVVGTPYWMSPEILNKKQYNYKVDIWSLGIMALEMIDGEPPYLRETPLKAIYLIAQNGKPEIKQRDRLSSEFNNFLDKCLVVDPDQRADTTELLAHPFLKKAKPLSSLIPYIRAVREK,not soluble
6,MAHHHHHHMTRPRLTSAPRGSALKEAISAHQALRNAVAQEQSALDDELKKNEQILAEHEQLMRDWSCDKEGVLATIQKMKEKIAENESKTTEARAEVKQNEEIVKRLHARNEEYEPRLEASAIEIAERLKKREEEEKEMREQLLTFQIACQEREQQYRDQIHKLEETNAQEAVDHQQKVQQLRSKIAEVEATMEEERRAWVVETEMRKQQRLIERHKFFTEEAEEARKGKEACAAIMKEASALRMDSNLLTSLDDLLCC,not soluble
